The results in this text go back to PMC4570275.

The assay concerns the target Glucocorticoid-induced TNFR-related protein (GITR) (mouse (endogenous in CD4+ T cells of mice)) (UniProt O35714).
UniProt O35714, sequence (O35714 20-228): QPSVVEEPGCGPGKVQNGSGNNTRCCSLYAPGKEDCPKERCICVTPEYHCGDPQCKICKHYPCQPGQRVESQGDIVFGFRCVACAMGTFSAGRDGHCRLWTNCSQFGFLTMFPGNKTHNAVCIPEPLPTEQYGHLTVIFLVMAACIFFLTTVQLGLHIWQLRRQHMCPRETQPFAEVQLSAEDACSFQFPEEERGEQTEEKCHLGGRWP

With “His-tagged recombinant mouse GITR Ligand (from UniProt Q7TS55 1-173)”, the percent Foxp3+ T cells by flow cytometry: OT-II CD4+ T cells activated with OVA and autologous APCs, TGF-β and IL-2, 3 days; >60% without GITR stimulation came out at 10%; the percent Foxp3+ T cells by flow cytometry: WT B6 naive CD4+ T cells activated 3 days under iTreg-polarizing conditions with His-GITR Ligand (200 ng/ml plus anti-His mAb); ∼65% without GITR ligation came to 4%; the percent IL-9+ Th9 cells by flow cytometry: WT B6 naive CD4+ T cells activated 3 days under iTreg-polarizing conditions with GITR ligation worked out at 30%.
